T1: hADAR1d E1008Q (Homo sapiens, UniProt P55265 SEQ:833-1226)
T1 chain: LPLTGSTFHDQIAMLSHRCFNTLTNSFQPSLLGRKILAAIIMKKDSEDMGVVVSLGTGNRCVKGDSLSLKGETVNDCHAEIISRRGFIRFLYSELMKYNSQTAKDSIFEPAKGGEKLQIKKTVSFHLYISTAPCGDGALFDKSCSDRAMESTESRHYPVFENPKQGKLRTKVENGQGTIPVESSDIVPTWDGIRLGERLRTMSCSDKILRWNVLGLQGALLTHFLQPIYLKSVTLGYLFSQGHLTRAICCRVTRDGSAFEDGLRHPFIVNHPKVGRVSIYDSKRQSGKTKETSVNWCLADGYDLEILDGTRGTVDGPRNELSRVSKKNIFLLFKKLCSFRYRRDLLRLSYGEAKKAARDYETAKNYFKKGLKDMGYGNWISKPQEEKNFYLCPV

B1: M13 TAG site + guide RNA (DNA:RNA)
DNA: CCTCGCGTTCTTAGAATACCGGAT
RNA: AUCCGGUAUUCCAAGAACGCGAGG
B2: M13 AAG site + guide RNA (DNA:RNA)
DNA: CCAAATGGCTCAAGTCGGTGACGG
RNA: CCGUCACCGACCUGAGCCAUUUGG
B3: M13 CAC site + guide RNA (DNA:RNA)
DNA: CTTTCTATTCTCACTCCGCTGAAA
RNA: UUUCAGCGGAGCGAGAAUAGAAAG
B4: M13 GAA site + guide RNA (DNA:RNA)
DNA: AGGCCAGACGCGAATTATTTTTGA
RNA: UCAAAAAUAAUCCGCGUCUGGCCU

Legend:
[1] = system: HBD-ADAR2 deaminase fusion (RNase H1 hybrid binding domain) (Homo sapiens); conditions: DNA strand of hybrid, 250 nM, 60 min
[2] = system: hADAR2d (ADAR2 deaminase domain, hADAR2-D WT) (Homo sapiens); conditions: DNA strand of hybrid, 250 nM, 60 min
hADAR1d E1008Q = target: T1, hADAR1d E1008Q; experiment: 500 nM, 2 h; conditions: dA-C mismatch
Description: M13 genomic ssDNA (New England Biolabs) was hybridized with the corresponding guide RNAs. The guide RNA to genomic DNA molar ratio was 20:1 for each hybridization. Deamination reactions were carried out as previously described (21) with the following modifications. The final reaction volume was 10 μL. hADAR1d E1008Q was used for the reaction and the final enzyme concentration was 500 nM. The final RNA concentration was 2.8 nM. The final reaction solution contained 13 mM Tris-HCl, pH 7.2, 3.6% glycerol, 1.2 mM EDTA, 0.002% NP-40, 40.5 mM potassium glutamate, 12.5 mM KCl, 6 mM NaCl, 0.6 mM DTT, 160 units/mL RNasin, and 1 μg/mL yeast tRNA. Reactions were quenched by adding 190 μL 95° C. nuclease-free water followed by incubation at 95° C. for 5 minutes. The target regions of the reaction products were PCR amplified with primers using GoTaq® DNA Polymerase (Promega). PCR products were purified by agarose gel, extracted using a QIAquick Gel Extraction Kit (Qiagen), and sequenced with the forward PCR primers. The sequencing peak heights were measured with Chromas for calculating the editing level. Each experiment was carried out in triplicate. The editing level for the corresponding zero time point was subtracted from each data point as background subtraction. Statistical significance between groups was determined by t tests using QuickCalcs (GraphPad Software).

Molecule | activity [1] [% edited] | activity [2] [% edited] | activity (hADAR1d E1008Q) [% edited]
DNA/RNA hybrid duplex used with HBD fusion | 90 | 35 | 
B1 |  |  | 94
B2 |  |  | 81
B3 |  |  | 53
B4 |  |  | 27

From patent US20200407704, “FUSION PROTEINS AND METHODS FOR SITE-DIRECTED GENOME EDITING” (The Regents of the University of California, published 2020)
